Test results as given in patent publication US20180326084A1 (Genmab, published 2018).

T1: Homo sapiens AXL-Mus musculus FN2 domain (p33-AXL-mFN2) (human-mouse chimera, UniProt P30530 26-894)
T1 construct: Expressed in HEK293F cells; also called hsAXL-mmFN2; TH1021-mFN2
T1 chain: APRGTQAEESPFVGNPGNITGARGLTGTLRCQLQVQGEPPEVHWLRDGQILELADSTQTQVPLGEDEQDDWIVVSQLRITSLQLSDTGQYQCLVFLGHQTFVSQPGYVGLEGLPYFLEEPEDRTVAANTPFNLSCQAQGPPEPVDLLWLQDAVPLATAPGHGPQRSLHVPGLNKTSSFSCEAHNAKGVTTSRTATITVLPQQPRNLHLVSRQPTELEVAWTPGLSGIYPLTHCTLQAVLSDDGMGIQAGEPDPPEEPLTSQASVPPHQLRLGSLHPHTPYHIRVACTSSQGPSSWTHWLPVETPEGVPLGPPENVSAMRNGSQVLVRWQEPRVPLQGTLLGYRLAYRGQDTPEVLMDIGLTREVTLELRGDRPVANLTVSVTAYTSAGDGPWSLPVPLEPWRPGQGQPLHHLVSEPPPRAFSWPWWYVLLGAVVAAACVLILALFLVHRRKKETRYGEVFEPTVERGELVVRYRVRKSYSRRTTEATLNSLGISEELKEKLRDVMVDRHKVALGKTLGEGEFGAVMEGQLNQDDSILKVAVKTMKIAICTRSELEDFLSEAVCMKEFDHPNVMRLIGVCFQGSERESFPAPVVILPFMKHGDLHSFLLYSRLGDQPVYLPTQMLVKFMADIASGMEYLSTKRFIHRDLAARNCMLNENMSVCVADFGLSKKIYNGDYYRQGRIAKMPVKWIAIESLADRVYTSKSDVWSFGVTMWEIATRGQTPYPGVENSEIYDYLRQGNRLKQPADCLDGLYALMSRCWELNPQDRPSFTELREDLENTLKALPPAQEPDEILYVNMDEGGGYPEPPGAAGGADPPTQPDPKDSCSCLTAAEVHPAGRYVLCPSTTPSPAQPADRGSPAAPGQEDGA

T2: Homo sapiens AXL-Mus musculus Ig1 domain (p33-AXL-mIg1) (human-mouse chimera, UniProt P30530 8-894)
T2 construct: Expressed in HEK293F cells; also called hsAXL-mmIg1; hsAXL-mmIgl
T2 chain: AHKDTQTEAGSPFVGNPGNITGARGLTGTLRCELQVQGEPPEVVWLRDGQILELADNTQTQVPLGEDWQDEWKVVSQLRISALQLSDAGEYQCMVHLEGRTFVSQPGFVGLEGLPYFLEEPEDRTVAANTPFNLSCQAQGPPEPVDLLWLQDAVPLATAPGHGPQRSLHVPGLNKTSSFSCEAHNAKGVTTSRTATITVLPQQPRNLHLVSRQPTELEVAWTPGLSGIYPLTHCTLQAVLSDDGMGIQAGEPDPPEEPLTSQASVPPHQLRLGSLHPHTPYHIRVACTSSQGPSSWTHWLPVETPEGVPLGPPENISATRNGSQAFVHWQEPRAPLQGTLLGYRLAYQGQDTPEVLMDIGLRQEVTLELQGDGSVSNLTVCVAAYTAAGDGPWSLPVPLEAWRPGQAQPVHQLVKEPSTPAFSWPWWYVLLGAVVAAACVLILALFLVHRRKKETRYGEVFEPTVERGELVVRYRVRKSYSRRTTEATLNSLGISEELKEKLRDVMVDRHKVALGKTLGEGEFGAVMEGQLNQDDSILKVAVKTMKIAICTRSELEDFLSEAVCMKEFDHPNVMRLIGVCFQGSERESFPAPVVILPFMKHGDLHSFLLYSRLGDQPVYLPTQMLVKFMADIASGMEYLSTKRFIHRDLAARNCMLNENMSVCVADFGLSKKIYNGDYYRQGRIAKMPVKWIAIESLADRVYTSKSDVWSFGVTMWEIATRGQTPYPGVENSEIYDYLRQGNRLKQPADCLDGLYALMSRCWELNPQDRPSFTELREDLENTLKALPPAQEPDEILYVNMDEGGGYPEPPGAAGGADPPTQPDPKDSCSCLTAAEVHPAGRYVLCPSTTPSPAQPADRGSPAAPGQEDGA


Legend:
AXLECDHis = target: T3, AXLECDHis (human, UniProt P30530 26-447); assay: BLI (Octet), IgG on anti-human Fc sensor, AXLECDHis analyte
T3 construct: theoretical mass 46 kDa used; also called extracellular domain (ECD) of human AXL (aa 1-447) with a C-terminal His tag; soluble recombinant AXL extracellular domain

human AXL (full length) [1] = target: T4, human AXL (full length) (human, UniProt P30530 26-894); assay: flow cytometry, A431 cells, no Gas6
T4 construct: also called TH1021-AXL; TH1021-hAXL

human AXL (full length) [2] = target: T4, human AXL (full length); assay: flow cytometry, HEK293T cells with full-length human AXL
[3] = target: T1, Homo sapiens AXL-Mus musculus FN2 …; assay: flow cytometry, 1 µg/mL antibody, transfected HEK293F cells
[4] = target: T2, Homo sapiens AXL-Mus musculus Ig1 …; assay: as above
human AXL (full length) [5] = target: T4, human AXL (full length); assay: flow cytometry, A431 cells pre-incubated with 10 µg/mL Gas6 (competitor)

Row | Binder | Kd (AXLECDHis) [µM] | koff (AXLECDHis) [s⁻¹] | kon (AXLECDHis) [M⁻¹ s⁻¹] | EC50 (human AXL (full length) [1]) [mg/L] | EC50 (human AXL (full length) [2]) [mg/L] | binding result [3] | binding result [4] | EC50 (human AXL (full length) [5]) [mg/L] | maximal binding in presence of Gas6 (% of binding in absence of Gas6) (human AXL (full length) [5]) [%]
1 | IgG1-AXL-733 (antibody, V domains shown) VH: QVQLVESGGGVVQPGRSLRLSCAASGFSFSTYAMHWVRQAPGKGLEWVAVISYDGDNKYSADSVKGRFTISRDNSKNTLYLQMNSLRAEDTAVYYCARGRKLGIDAFDIWGQGTMVTVSS VL: AIQLTQSPSSLSASVGDRVTITCRASQGISSALAWYQQKPGKAPKLLIYDASSLESGVPSRFSGSGSGTDFTLTISGLQPEDFATYYCQQFNSYPFTFGPGTKVDIK | 0.063 | 0.0097 | 160000 | 0.49 | 0.176 | binds | binds | 0.62 | 93
2 | IgG1-AXL-183 (antibody, V domains shown) VH: QVQLQQWGAGLLKPSETLSLTCAVYGGSFSGYYWSWIRQPPGKGLEWIGEINQSGSTNYNPSLKSRVTISVDTSKNQFSLKLSSVTAADTSVYYCASGNWDHFFDYWGQGTLVTVSS VL: DIQMTQSPSSVSASVGDRVTITCRASQGISSWLAWYQHKPGKAPKLLIYATSSLQSGVTSRFSGSGSGTDFTLTISSLQPEDFATYYCQQAKSFPWTFGQGTKVEIK | 0.0102 | 0.00042 | 41000 | 0.69 | 0.526 | binds | binds | 1.19 | 90
3 | IgG1-AXL-148 (antibody, V domains shown) VH: EVQLLESGGGLVQPGGSLRLSCAASGFTFSSYAMTWVRQAPGKGLEWVSAISISGGSTFYADSVKGRFTISRDNSKNTLYLQMNSLRAEDTAVYYCRGYSGYVYDAFDFWGQGTMVTVSS VL: DIQMTQSPSSLSASVGDRVTITCRASQGISNWLAWYQQKPEKAPKSLIYAASSLQSGVPSRFSGSGSGTDFTLTISSLQPEDFATYYCQQYNSYPLTFGGGTKVEIK | 0.02 | 0.0044 | 230000 | 0.11 | 0.094 | binds | binds | 0.2 | 93
4 | IgG1-AXL-726 (antibody, V domains shown) VH: QVQLQQWGAGLLKPSETLSLTCAIDGGSFSGYYWSWIRQPPGKGLEWIGEISHSGRTNYNPSLKSRVTISIDTSKNQFSLKLSSVAAADTAVYYCARFITMIRGAIITHFDYWGQGALVTVSS VL: DIQMTQSPSSLSASVGDRVTITCRASQGISSWLAWYQQKPEKAPKSLIYAASSLQSGVPSRFSGSGSGTDFTLTISSLQPEDFATYYCQQYHSYPYTFGQGTKLEIK | 0.0006 | 0.00013 | 240000 | 0.32 | 0.288 | – | binds | 0.55 | 97
